Results as given in PMC9598941.

Experiments:
[1] = target: T1, CcpA (catabolite control protein A) (Staphylococcus aureus XN108 (clinical isolate)?) (UniProt P99175); experiment: competition
T1 sequence: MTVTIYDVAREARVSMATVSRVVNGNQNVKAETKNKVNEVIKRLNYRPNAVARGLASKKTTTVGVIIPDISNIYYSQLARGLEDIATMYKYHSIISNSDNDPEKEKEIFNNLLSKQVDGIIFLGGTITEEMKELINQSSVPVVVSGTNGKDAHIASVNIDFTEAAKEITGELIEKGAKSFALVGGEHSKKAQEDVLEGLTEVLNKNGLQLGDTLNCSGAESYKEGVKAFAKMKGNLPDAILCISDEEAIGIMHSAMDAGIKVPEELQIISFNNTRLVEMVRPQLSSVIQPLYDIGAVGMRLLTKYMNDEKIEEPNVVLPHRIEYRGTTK

[2] = target: T1, CcpA (catabolite control protein A) (Staphylococcus aureus XN108 (clinical isolate)?); experiment: EMSA

Q: Which binding [1] does the source give for “GGCGCTTCCTCCAAATATAATATATTTGTTTTTATTTATCTCTTTTTATAGCTAACACCCTTATTTAAGATGATAAATATCAACAACTTCATTTTATATTGAGAAAATATTAAAAATCAATAAAATATTAAAAGAAACTAAACTTACATTAAAAAATAATTAACAAATATTTAACATTTTAACCTAAGAA (double strand) [Psak]” here?
A: The binding was “binds”.

Q: And the binding [2]?
A: The binding was “binds”.
